These results are taken from US20040006777A1, “Human lymphoid protein tyrosine phosphatases” (HSC Research and Development Limited Partnership, priority 1998, published 2004).

Data set [1] relates to Zap-70. In words: Co-transfection of Lyp1 and kinase cDNA, kinase immunoprecipitation, anti-phosphotyrosine Western blot. The data set is classed as cell-based. As to the method: (§1) Western blotting was performed with anti-phosphotyrosine antibodies and chemiluminescent detection reagents. […] Syk was unaffected by Lyp1 (C).
(§2) cDNA for the phosphatase Lyp1 and the indicated kinase, in the eucaryotic expression vector pcDNA3, were transiently transfected into either the COS-7 monkey epithelial cell line (A) or the 293T human epithelial cell line as indicated. 48 hours after transfection, cells were harvested, lysates made in 1 & NP-40 lysis buffer and immunoprecipitations performed with antibodies to the transfected kinase. Immunoprecipitates were washed, boiled in SDS sample buffer and electrophoresed on SDS-PAGE. After electro-transfer to nitrocellulose membrane, Western blotting was performed with anti-phosphotyrosine antibodies and chemiluminescent detection reagents. […] Lyp1 could also down-regulate Zap-70 after its activation by Fyn in 293-T cells (B, lanes 3 and 4). The closely related Zap family kinase Syk was also unaffected by Lyp1 (C).

Data set [2] has as its system Fyn. Described as above. The note with it: COS-7 and 293-T cells. The class given is cell-based. On the procedure:
as §1, §2

Data set [3] has as its system Jak3. The data set can be described thus: Co-transfection of Lyp1 and kinase cDNA in COS-7, kinase immunoprecipitation, anti-phosphotyrosine Western blot. The note with it: COS-7 cells. The class given is cell-based. As to the method: (§3) Western blotting was performed with anti-phosphotyrosine antibodies and chemiluminescent detection reagents. Lyp1 reduced the tyrosine phosphorylation of Jak3 (C) while having little effect on Syk (D). No effect was seen when Syk was co-transfected with Lyp-N (D).
cDNA for the phosphatase Lyp1 and the indicated kinase, in the eucaryotic expression vector pcDNA3, were transiently transfected into the COS-7 monkey epithelial cell line. 48 hours after transfection, cells were harvested, lysates made in 1% NP-40 lysis buffer and immunoprecipitations performed with antibodies to the transfected kinase. Immunoprecipitates were washed, boiled in SDS sample buffer and electrophoesed on SDS-PAGE. After electro-transfer to nitrocellulose membrane, Western blotting was performed with anti-phosphotyrosine antibodies and chemiluminescent detection reagents.

Data set [4] concerns Syk. In words: Co-transfection of Lyp1 or Lyp-N and kinase cDNA, kinase immunoprecipitation, anti-phosphotyrosine Western blot. The note with it: co-transfection with Syk. The data set is classed as cell-based. On the procedure:
as §1, §3
as §2, with “(C). […]” for “(C).”

The target of data set [5] is T1, Lyp1 (Homo sapiens, UniProt Q9Y2R2).
T1 construct: made in house; host or cells: COS cells (transient transfection, pcDNA3); anti-T7 immunoprecipitate
T1 sequence (Q9Y2R2 1-807): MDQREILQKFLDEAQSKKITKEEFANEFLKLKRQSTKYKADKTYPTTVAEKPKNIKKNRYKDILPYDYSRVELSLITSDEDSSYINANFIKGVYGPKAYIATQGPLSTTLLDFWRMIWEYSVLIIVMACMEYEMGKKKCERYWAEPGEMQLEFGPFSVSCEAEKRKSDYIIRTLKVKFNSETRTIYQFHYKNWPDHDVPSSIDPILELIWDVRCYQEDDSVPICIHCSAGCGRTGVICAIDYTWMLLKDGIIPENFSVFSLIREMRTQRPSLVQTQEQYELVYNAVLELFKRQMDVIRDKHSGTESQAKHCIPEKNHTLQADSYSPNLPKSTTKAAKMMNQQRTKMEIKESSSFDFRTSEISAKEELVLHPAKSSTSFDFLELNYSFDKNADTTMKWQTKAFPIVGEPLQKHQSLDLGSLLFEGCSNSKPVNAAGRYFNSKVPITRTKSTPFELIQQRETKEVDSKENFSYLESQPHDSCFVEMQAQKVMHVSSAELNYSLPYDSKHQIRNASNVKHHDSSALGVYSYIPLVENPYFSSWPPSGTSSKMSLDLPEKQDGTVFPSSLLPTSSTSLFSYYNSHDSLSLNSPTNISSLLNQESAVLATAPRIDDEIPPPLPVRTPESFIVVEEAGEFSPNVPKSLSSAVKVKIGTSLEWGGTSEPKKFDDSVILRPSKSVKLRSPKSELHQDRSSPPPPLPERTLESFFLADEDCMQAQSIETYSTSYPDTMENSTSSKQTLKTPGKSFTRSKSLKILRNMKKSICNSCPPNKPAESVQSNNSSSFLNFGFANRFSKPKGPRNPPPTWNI
The data set can be described thus: In vitro phosphatase assay with 33P labelled Raytide peptide and Lyp immunoprecipitates. The data set is classed as biochemical. The note with it: Lyp immunoprecipitates from transfected COS cells compared to control immunoprecipitates from untransfected cells. On the procedure:
Anti-Lyp immunoprecipitates from untransfected and pcDNA3-Lyp1 transfected cells were prepared in pervanadate free lysis buffer and incubated with ^33P labelled substrate Raytide. At the indicated time points reactions were stopped by the addition of charcoal and the free ^33P released from the peptide and now present in the supernatant measured by liquid scintillation counting.
Raytide peptide was ^33P labelled on tyrosine residues in vitro using the tyrosine kinase p60src and purified on phosphocellulose paper. Release of ^33P over time was measured in the phosphatase assay and compared to controls from untransfected cells.
Specifically, the synthetic peptide Raytide was phosphorylated according to the method described by Guan et al., (1994)(54), on tyrosine by p60src (Oncogene Science) as follows: 10 μg Raytide in 50 mM Hepes pH 7.5, 10 mM MgCl2, 0.067% mercaptoethanol, 0.05 mM ATP was incubated with 300 μCiγ^33P ATP per ml and 2 μg p60src in a final volume of 30 μl. The reaction was allowed to proceed for 30 minutes at 30° C. and was stopped by the addition of […] 10% phosphoric acid.
The sample was spotted onto two 1×1 cm sheets of P81 phophocellulose paper and extensively washed with 0.5% phosphoric acid. […]
The phosphorylated substrate was used in the phosphatase assay as described by Stueli et al (1989)(54). […] After centrifugation the free ^33P in the supernatant was measured.

The subject of data set [6] is Cbl. In words: Lyp1 transfection into COS-7 cells, Cbl immunoprecipitation, anti-phosphotyrosine blot. The class given is cell-based, monkey. The note with it: Lyp1 transfected COS-7 cells, endogenous Cbl. As to the method: (A) Lyp immunoprecipitates from thymocytes (80×10^6 cells) stimulated with anti-CD3 were blotted with antiphsophotyrosine. A single phosphorylated band of 116 kD was detected co-immunoprecipitating with Lyp. Lyp protein loading was quantitated by anti-Lyp western blot after stripping. […] (C) Lyp1 was transfected into COS-7 cells and Cbl immunoprecipitates prepared from these and untransfected cells. Western blotting was performed with Lyp antibodies. The position of Lyp is indicted by an arrow. Cbl immunoprecipitates were also prepared and blotted with anti-phosphotyrosine (D), and then anti-Cbl after stripping.
One of the earliest events following TCR stimulation of T cells is the induction of tyrosine phosphorylation. In order to determine whether Lyp played a role in TCR signalling, human thymocytes were stimulated with anti-CD3 for various periods of time, Lyp immunoprecipitated and blotted with anti-phosphotyrosine. […] Once activated, the phosphorylation level of this protein remained constant over a period of 20 minutes. The 116 kD phosphorylated protein was identified by western blotting of Lyp immunoprecipitates from CD3 stimulated thymocytes with antibodies to various candidate proteins. […]

The test system of data set [7] is Lyn kinase. In words: Effect of Lyp1 on Lyn kinase activity. The data set is classed as cell-based.
Data set [8] has as its system Ick. The data set can be described thus: Co-transfection of Lyp1 and src family kinases. The class given is cell-based. The note with it: Lyp1 with src family kinases.

Entries after “also recorded” stand apart in the source; their conditions may differ.

B1: Lyp1: human intracellular 105 kDa lymphoid protein tyrosine phosphatase, 808 amino acids, Sequence ID NO:2 (Table 2) (protein, listed as Homo sapiens)
chain: MDQREILQKFLDEAQSKKITKEEFANEFLKLKRQSTKYKADKTYPTTVAENAKNIKKNRYKDILPYDYSRVELSLITSDEDSSYINANFIKGVYGPKAYIATQGPLSTTLLDFWRMIWEYSVLIIVMACMEYEMGKKKCERYWAEPGEMQLEFGPFSVSCEAEKRKSDYIIRTLKVKFNSETRTIYQFHYKNWPDHDVPSSIDPILELIWDVRCYQEDDSVPICIHCSAGCGRTGVICAIVDYTWMLLKDGIIPENFSVFSLIREMRTQRPSLVQTQEQYELVYNAVLELFKRQMDVIRDKHSGTESQAKHCIPEKNHTLQADSYSPNLPKSTTKAAKMMNQQRTKMEIKESSSFDFRTSEISAKEELVLHPAKSSTSFDFLELNYSFDKNADTTMKWQTKAFPIVGEPLQKHQSLDLGSLLFEGCSNSKPVNAAGRYFNSKVPITRTKSTPFELIQQRETKEVDSKENFSYLESQPHDSCFVEMQAQKVMHVSSAELNYSLPYDSKHQIRNASNVKHHDSSALGVYSYIPLVENPYFSSWPPSGTSSKMSLDLPEKQDGTVFPSSLLPTSSTSLFSYYNSHSSLSLNSPTNISSLLNQESAVLATAPRIDDEIPPPLPVRTPESFIVVEEAGEFSPNVPKSLSSAVKVKIGTSLEWGGTSEPKKFDDSVILRPSKSVKLRSPKSELHQDRSSPPPPLPERTLESFFLADEDCMQAQSIETYSTSYPDTMENSTSSKQTLKTPGKSFTRSKSLKILRNMKKSICNSCPPNKPAESVQSNNSSSFLNFGFANRFSKPKGPRNPPPTWNI
Turning to B1, in data set [1] (293-T cells), the “Zap-70 phosphorylation after its activation by Fyn” value is listed as “down-regulate”. Further, the Zap-70 tyrosine phosphorylation result in data set [1] (COS-7 and 293-T cells) is on record as “reduction; also recorded: complete dephosphorylation”. Also, the Fyn tyrosine phosphorylation result in data set [2] is on record as “unaffected; also recorded: no dephosphorylation”. For the same molecule, in data set [3], the Jak3 tyrosine phosphorylation entry was “clearly reduced; also recorded: complete dephosphorylation”. The Syk tyrosine phosphorylation result in data set [4] is reported as “unaffected; also recorded: little effect; also recorded: no Syk dephosphorylation”. In addition, the “33P release from the substrate Raytide” value in data set [5] was “seven fold increase”. For the same molecule, the “basal level of Cbl tyrosine phosphorylation” value in data set [6] is “reduce significantly”. Also, the Lyn kinase activity result in data set [7] was “strongly down-regulates”. Besides, the Ick dephosphorylation result in data set [8] is listed as “no dephosphorylation”.

B2: Lyp-N: catalytically inactive form of Lyp1 where Cysteine 227 is replaced by Serine (protein, UniProt Q9Y2R2 1-807, looked up, variant C227S)
Tyrosine-protein phosphatase …: MDQREILQKFLDEAQSKKITKEEFANEFLKLKRQSTKYKADKTYPTTVAEKPKNIKKNRYKDILPYDYSRVELSLITSDEDSSYINANFIKGVYGPKAYIATQGPLSTTLLDFWRMIWEYSVLIIVMACMEYEMGKKKCERYWAEPGEMQLEFGPFSVSCEAEKRKSDYIIRTLKVKFNSETRTIYQFHYKNWPDHDVPSSIDPILELIWDVRCYQEDDSVPICIHSSAGCGRTGVICAIDYTWMLLKDGIIPENFSVFSLIREMRTQRPSLVQTQEQYELVYNAVLELFKRQMDVIRDKHSGTESQAKHCIPEKNHTLQADSYSPNLPKSTTKAAKMMNQQRTKMEIKESSSFDFRTSEISAKEELVLHPAKSSTSFDFLELNYSFDKNADTTMKWQTKAFPIVGEPLQKHQSLDLGSLLFEGCSNSKPVNAAGRYFNSKVPITRTKSTPFELIQQRETKEVDSKENFSYLESQPHDSCFVEMQAQKVMHVSSAELNYSLPYDSKHQIRNASNVKHHDSSALGVYSYIPLVENPYFSSWPPSGTSSKMSLDLPEKQDGTVFPSSLLPTSSTSLFSYYNSHDSLSLNSPTNISSLLNQESAVLATAPRIDDEIPPPLPVRTPESFIVVEEAGEFSPNVPKSLSSAVKVKIGTSLEWGGTSEPKKFDDSVILRPSKSVKLRSPKSELHQDRSSPPPPLPERTLESFFLADEDCMQAQSIETYSTSYPDTMENSTSSKQTLKTPGKSFTRSKSLKILRNMKKSICNSCPPNKPAESVQSNNSSSFLNFGFANRFSKPKGPRNPPPTWNI
B2: the Syk tyrosine phosphorylation result in data set [4] is listed as “No effect”.
